B1: Cellular tumor antigen p53 (Mus musculus), P02340 (parent)
chain: MTAMEESQSDISLELPLSQETFSGLWKLLPPEDILPSPHCMDDLLLPQDVEEFFEGPSEALRVSGAPAAQDPVTETPGPVAPAPATPWPLSSFVPSQKTYQGNYGFHLGFLQSGTAKSVMCTYSPPLNKLFCQLAKTCPVQLWVSATPPAGSRVRAMAIYKKSQHMTEVVRRCPHHERCSDGDGLAPPQHLIRVEGNLYPEYLEDRQTFRHSVVVPYEPPEAGSEYTTIHYKYMCNSSCMGGMNRRPILTIITLEDSSGNLLGRDSFEVRVCACPGRDRRTEEENFRKKEVLCPELPPGSAKRALPTCTSASPPQKKKPLDGEYFTLKIRGRKRFEMFRELNEALELKDAHATEESGDSRAHSSYLKTKKGQSTSRHKKTMVKKVGPDSD

The source of these data is IntAct's records for PubMed 17254968.

Variants of B1 are the subject of the assay. As to conditions: with mapk5_mouse Mapkapk5, O54992.
Sequence of mapk5_mouse Mapkapk5, O54992 (O54992 whole entry): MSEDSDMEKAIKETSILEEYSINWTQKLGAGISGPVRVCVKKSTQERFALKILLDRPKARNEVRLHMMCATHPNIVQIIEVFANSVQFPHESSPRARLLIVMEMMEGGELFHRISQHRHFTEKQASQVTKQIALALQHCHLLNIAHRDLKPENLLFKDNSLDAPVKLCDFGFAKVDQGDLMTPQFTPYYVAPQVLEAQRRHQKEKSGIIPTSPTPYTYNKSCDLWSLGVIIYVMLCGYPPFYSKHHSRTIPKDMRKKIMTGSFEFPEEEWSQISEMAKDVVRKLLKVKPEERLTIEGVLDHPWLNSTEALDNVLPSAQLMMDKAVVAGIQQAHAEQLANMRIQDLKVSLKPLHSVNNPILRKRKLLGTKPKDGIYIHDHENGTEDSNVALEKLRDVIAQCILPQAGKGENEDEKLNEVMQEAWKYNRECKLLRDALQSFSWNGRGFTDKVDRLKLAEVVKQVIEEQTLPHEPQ
With MTAMEESQSDISLELPLSQETFSGLWKLLPPEDILPDPHCMDDLLLPQDVEEFFEGPSEALRVSGAPAAQDPVTETPGPVAPAPATPWPLSSFVPSQKTYQGNYGFHLGFLQSGTAKSVMCTYSPPLNKLFCQLAKTCPVQLWVSATPPAGSRVRAMAIYKKSQHMTEVVRRCPHHERCSDGDGLAPPQHLIRVEGNLYPEYLEDRQTFRHSVVVPYEPPEAGSEYTTIHYKYMCNSSCMGGMNRRPILTIITLEDSSGNLLGRDSFEVRVCACPGRDRRTEEENFRKKEVLCPELPPGSAKRALPTCTSASPPQKKKPLDGEYFTLKIRGRKRFEMFRELNEALELKDAHATEESGDSRAHSSYLKTKKGQSTSRHKKTMVKKVGPDSD [S37D], the “effect of a mutation on the interaction” value is reported as “disrupting interaction”.
